Measured values: patent US20150111820A1, “NOVEL USE OF INSULIN DERIVATIVES” (Novo Nordisk A/S, priority 2012, published 2015)

Set-up: species or system humans
Conditions: in vivo
Experimental: The simulation was performed using the software WinNonlin Professional 5.3 (Pharsight Inc., Mountain View, Calif., USA).

Row | Substance | elimination half-life [h] | elimination rate constant [h⁻¹] | terminal half-life compared with Compound 6
1 | A14E, B25H, B29K(N^ε-octadecandioyl-γGlu-OEG-OEG), desB30 human insulin [Compound 6] | 52 | 0.013 | 
2 | A14E, B25H, desB27, B29K(N^ε-(octadecandioyl-γGlu), desB30 human insulin [Compound 4] |  |  | almost the same terminal half-life
